Measurements from article doi:10.1101/2024.08.29.610253, “Liprin-α/RIM complex regulates the dynamic assembly of presynaptic active zones via liquid-liquid phase separation” (bioRxiv, 2024).

Molecular target: the molecule itself
Experiment: SEC-MALS; Superdex 200 Increase 10/300 GL in TBS (20 mM Tris pH 8.0, 100 mM NaCl, 1 mM EDTA, 1 mM DTT); individual proteins or mixture, up to 500 μM

B1: liprin-α2_CC2 (domain or fragment, human, UniProt O75334 259-542, looked up)
chain: GSIDSTDETSQIVELQELLEKQNYEMAQMKERLAALSSRVGEVEQEAETARKDLIKTEEMNTKYQRDIREAMAQKEDMEERITTLEKRYLSAQRESTSIHDMNDKLENELANKEAILRQMEEKNRQLQERLELAEQKLQQTMRKAETLPEVEAELAQRIAALTKAEERHGNIEERMRHLEGQLEEKNQELQRARQREKMNEEHNKRLSDTVDRLLTESNERLQLHLKERMAALEEKNVLIQESETFRKNLEESLHDKERLAEEIEKLRSELDQLKMRTGSLIEP
notes: liprin-α2, human, GenBank AF034799.1, CC2 region, residues 259-542; Dimeric by SEC-MALS at 500 μM; source: E. coli BL21(DE3), purified (Ni-NTA, SEC)
stoichiometry N: 2
